In the supplement of paper PMC10567573:
± gives the standard deviation.

Assay: protein stability index of a GFP-peptide fusion (GPS, HEK-293T) (PSI 1-6); higher = more stable
[1] = treatment: DMSO, c terminus: a fixed tail appended
[2] = treatment: MLN4924 1 uM, 8 h, c terminus: a fixed tail appended
[3] = treatment: DMSO, c terminus: native
[4] = treatment: MLN4924 1 uM, 8 h, c terminus: native
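Further: 24-mer peptide tiles fused after GFP, lentivirally expressed, FACS-sorted into six equal bins by GFP/DsRed ratio, decoded by Illumina sequencing, PSI is the read-weighted mean bin number.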

Sequence	protein stability index [1]	protein stability index [2]	protein stability index [3]	protein stability index [4]
QAKILQCYRENTHQTLKCSALATQ [CHCHD3]	3.21 ± 0.31	3.33 ± 0.26	–	–
ESLMALCTDFCLRNLDGTLGYLLD [ZER1]	2.71 ± 0.4	2.94 ± 0.39	–	–
LKGAFPARLKKVLIVGAPIWFRVP [PTPN9]	2.96 ± 0.7	2.84 ± 0.5	–	–
EDSSNQEEEGPSTFPDLESEFQAA [MAGEA3]	5.51 ± 0.28	5.48 ± 0.16	–	–
TPSEEHMKNKNNVTEFILLGLTQN [OR4A15]	3.26 ± 0.33	3.21 ± 0.21	–	–
ADTKKRHTPRGHAESTSNRQPRKQ [SMOC2]	5.34 ± 0.2	5.29 ± 0.15	–	–
TSGVVFTGLMVSLLCLLHFSIVSV [RTN2]	3 ± 0.53	3.07 ± 0.24	–	–
CPPGGIHQVTVNESLLAPLNVELD [KRT71]	4.63 ± 0.29	4.54 ± 0.23	–	–
LSMERYALVFGVNTFIALALQTLL [SLC19A2]	3.04 ± 0.22	2.93 ± 0.53	–	–
RRLIKRFSFKSKPKANGNPSPQL [C2CD2L]	–	–	4.24 ± 0.3	4.38 ± 0.16
PAADGARAPRSPGQVTPRGLRLRL [C6orf223]	3.96 ± 0.12	3.97 ± 0.19	–	–
PVGLVMEYMETGSLEKLLASEPLP [RIPK4]	3.46 ± 0.48	3.13 ± 0.22	–	–
ENILMCVDDAYVRRMAAEATEWQK [SRPK2]	3.52 ± 0.26	3.55 ± 0.17	–	–
LTCDSAQKCHSIGETDEVTKTEDR [ZSCAN9]	5.27 ± 0.34	5.59 ± 0.13	–	–
VFRWLAYSYASTHRLMTDARRRVC [CPXM2]	2.35 ± 0.32	2.54 ± 0.32	–	–
MAGAIAQGLIRAGKVEAQHILASA [PYCR3]	2.18 ± 0.18	2.31 ± 0.32	–	–
DNSDYDYSALSCTSDASFHPAFLP [KCNG1]	3.59 ± 0.26	3.46 ± 0.32	–	–
AFQLLRRFVQAEGRRATLQRLVEA [TRADD]	2.19 ± 0.15	2.26 ± 0.38	–	–
SRSAAQDLDRMGVMTLPSDLRKHR [PPFIA4]	4.54 ± 0.48	5.22 ± 0.1	–	–
YKMDHRRRGIALIFNHERFFWHLT [CASP6]	2.4 ± 0.72	2.2 ± 0.47	–	–
SSASEGDEDLRRQMQDDEQKTRLL [PALM]	5.51 ± 0.15	5.49 ± 0.19	–	–
LGKITFIRNSRPLVKKVEEDEAGG [UFD1]	3.99 ± 0.34	3.94 ± 0.25	–	–
SVKIIFKLPNDSRVERRFHFSQSL [FAF2]	2.72 ± 0.67	2.76 ± 0.55	–	–

Sequence	protein stability index [1]	protein stability index [2]	protein stability index [3]	protein stability index [4]
EEANADLEVKIRDWYQRQRPSEIK [KRT16]	4.14 ± 0.64	4.72 ± 0.27	–	–
MSELFLHTPSDTGVSFQAISSMAD [PKD2L1]	3.41 ± 0.15	3.61 ± 0.27	–	–
VTFREENTIAFRHLFLLGYSDGAD [MCOLN1]	2.38 ± 0.2	2.2 ± 0.11	–	–
EYLENQVIKDKDDSVDAQNICHVW [RNF180]	3.42 ± 0.26	3.57 ± 0.27	–	–
QQTGDDDEVDDFEDFIFSHFFGDK [PBXIP1]	4.71 ± 0.51	4.9 ± 0.23	–	–
DLYNWEVAIFGPPNTLYEGGYFKA [UBE2R2]	2.66 ± 0.4	2.32 ± 0.37	–	–
ADDPTSGFSSIPDAFWWAVVTMTT [KCNA3]	2.94 ± 0.92	2.6 ± 0.4	–	–
DSSNSMQTIQKTTTRRIVDGKVVS [KRT18]	3.61 ± 0.19	3.73 ± 0.31	–	–
KYNHAACFGLQPGCLLPDGSRMMA [NLN]	2.59 ± 0.27	2.55 ± 0.33	–	–
KINKIRWLPQQNAAYFLLSTNDKT [PPP2R2B]	2.69 ± 0.26	2.54 ± 0.039	–	–
PAVPEEILKRLLKEQHLWDVDLLD [DLC1]	2.97 ± 0.55	3.12 ± 0.34	–	–
ANPFQAYLDVDLTLTREQTERLSH [RTN2]	3.65 ± 0.3	3.67 ± 0.31	–	–
TYTYTSRPRALPCQRSRYRDSLTQ [RSPH3]	3.18 ± 0.23	3.18 ± 0.14	–	–
SSLEEIVEKQGDTIEYLKRHNALL [TMEM192]	3.82 ± 0.38	3.92 ± 0.16	–	–
DPKRRMTIAQSLEHSWIKAIRRRN [DAPK3]	3.67 ± 0.33	3.91 ± 0.35	–	–
TNHIAPHARNGLSLKEEHRAYDLL [IKZF1]	3.43 ± 0.28	3.64 ± 0.11	–	–
SVVSYTLKDIHDDQDYLHSLGKAR [FLOT1]	3.43 ± 0.3	3.54 ± 0.28	–	–
GGGGGGGGGGGGGGTSSNNSEEEE [ANKRD17]	5.42 ± 0.23	5.41 ± 0.31	–	–
RYLEAEFKKGNRYIRCQKEVGKSF [SMG5]	2.57 ± 0.71	2.29 ± 0.21	–	–
ALGAPSKSPSSPQAAFTQQGMEGI [TBX5]	4.59 ± 0.37	4.51 ± 0.19	–	–
DTANEIGQVLHFENVKDVPFGFQT [SERPINB5]	3.74 ± 0.075	3.99 ± 0.2	–	–
ELVSADVIDLFDEQGLSALHLAAQ [RIPK4]	3.02 ± 0.78	3.56 ± 0.4	–	–
NILLKNLVTIARKASLWQFLSSEK [TRIM43]	2.17 ± 0.42	2.13 ± 0.18	–	–

Sequence	protein stability index [1]	protein stability index [2]	protein stability index [3]	protein stability index [4]
KALAIILHLLYLLEKVECTPSQEH [FEM1A]	1.96 ± 0.35	1.99 ± 0.13	–	–
LPRRDFQRQVWLLFEYPESSGPAR [KCNA3]	2.32 ± 0.26	2.71 ± 0.58	–	–
KCDSLKEECIPEHMVRESKIMEAE [FAN1]	5.2 ± 0.39	5 ± 0.22	–	–
GTAGDSMSYHSGSVFSARDRDPNS [TNXB]	4.66 ± 0.18	4.87 ± 0.14	–	–
ALKAAKREQEKKPKKEANQAPKSK [LRRC59]	5.24 ± 0.27	5.28 ± 0.18	–	–
ETVADVRTLPNASTVDNIRSIFGN [MLH1]	4.21 ± 0.18	4.19 ± 0.11	–	–
LEEAKQPKNDNVVIPECAHGGLYK [SMOC2]	5.31 ± 0.14	5.146 ± 0.035	–	–
EVFEGREDSILGDPKKLLTQHFVQ [MAGEA3]	3.42 ± 0.49	3.29 ± 0.4	–	–
LEKEEEKDLVMYSKCQRLFRSPSM [CDC25B]	3.69 ± 0.39	3.57 ± 0.18	–	–
NASRSLYPDAEDPQLGLDGPGEPD [PSD2]	5.4 ± 0.2	5.51 ± 0.22	–	–
ELGLLIFFLFIGVILFSSAVYFAE [KCNA1]	2.04 ± 0.53	2.06 ± 0.37	–	–
ERYRHEIAHDGQRIYVLGGGTSWT [KLHDC10]	2.83 ± 0.48	2.79 ± 0.23	–	–
DERRRLLEQKTQESQKKKQQDDSD [ZNF207]	5.54 ± 0.33	5.53 ± 0.25	–	–
MASRAGPRAAGTDGSDFQHRERVA [JAGN1]	4.67 ± 0.31	4.7 ± 0.13	–	–
KVPRPDALDNESWGFVHPRLLSVP [RETREG3]	2.91 ± 0.13	2.74 ± 0.081	–	–
NVGRVHRVAKKLQSGLVWTNCWLI [ALDH8A1]	3.04 ± 0.41	2.61 ± 0.49	–	–
FTGNSKLELNFKAGDVIFLLSRIN [NCF4]	2.67 ± 0.76	3.16 ± 1.1	–	–
SSSTLMSSELETTSFFDSDEDDST [DVL3]	5.54 ± 0.38	5.61 ± 0.14	–	–
DPAYIAVLVLIFNAAKTCPTMPAL [INTS4]	3.12 ± 0.56	3.09 ± 0.47	–	–
FRETEKSRWSEASRAILQRVQAAA [ALKBH7]	3.21 ± 0.18	3.3 ± 0.16	–	–
SPREGEELKPEDKDPRDPEESKEP [GNAS]	5.78 ± 0.14	5.71 ± 0.26	–	–
SMTTPRCYVGATVLRGRLYAIAGY [KLHL12]	2.14 ± 0.36	2.51 ± 0.58	–	–
AAMEGATLDQTTSEEAPGGTELIQ [HDAC6]	5.64 ± 0.12	5.47 ± 0.22	–	–

Sequence	protein stability index [1]	protein stability index [2]	protein stability index [3]	protein stability index [4]
PPPELMDVSLVGGPADCSPPHPAP [DYRK1B]	5.08 ± 0.22	5.1 ± 0.11	–	–
LVEELSPASEKKPVPPSEGKSRLS [BCL2L13]	5.32 ± 0.31	5.46 ± 0.15	–	–
MAYDQFLAICRPLTYSTRMSQTVQ [OR3A1]	2.25 ± 0.33	2.21 ± 0.29	–	–
MARVAWGLLWLLLGSAGAQYEKYS [P3H4]	3.18 ± 0.83	3.16 ± 0.48	–	–
DPLNICVFILLLVFIVVKCFTSE [RTP4]	–	–	2.93 ± 0.24	2.89 ± 0.098
DHKRETERVVREALEKLRSEMEEE [ZMYND11]	4.99 ± 0.18	5.35 ± 0.12	–	–
EMLGRKCLTLATAVVQLYLALPPG [WAS]	3.02 ± 0.3	3.3 ± 0.55	–	–
ERPRMNANSLLASPTGLSPYLRFG [CRY1]	2.89 ± 0.21	2.98 ± 0.22	–	–
PRGYFHTFAGDTCQVALNFANEEE [WASL]	4.43 ± 0.27	4.34 ± 0.12	–	–
GDGVPPRSLQDGTREGFGHSTSLK [LCOR]	5.08 ± 0.24	4.92 ± 0.22	–	–
SAKNTSHPGSGTKVQFNLQFTKPN [SASS6]	3.35 ± 0.12	3.61 ± 0.14	–	–
DYSQLNESTTKESSEASQLEDAAG [FBXO34]	5.47 ± 0.28	5.35 ± 0.46	–	–
SSLDLSYYPTSSSTSFMSSSSSSS [EMD]	3.99 ± 0.06	3.84 ± 0.34	–	–
LVQLDDYRFASAGDDGIVVVWNAQ [WDR41]	2.64 ± 0.28	2.87 ± 0.31	–	–
PSHSDNLLHGLNLLWRKQLFCDVT [KLHL14]	1.96 ± 0.33	2.16 ± 0.3	–	–
EQKTGTEAEAADSGAVGARRFLLC [MFSD9]	4.48 ± 0.15	4.42 ± 0.1	–	–
EESGAQLLLEMLTFNPHKRISAFR [CDK4]	2.21 ± 0.15	2.23 ± 0.18	–	–
WDPSPRGCFTLPRSEPIRPIDPAA [DVL3]	3.98 ± 0.23	3.77 ± 0.073	–	–
QVFLDRINRADYCPECYPDNPANR [TOR1AIP2]	2.76 ± 0.33	2.9 ± 0.28	–	–
RGFMEMNGRGELVESLKRFCASTR [AUP1]	2.54 ± 0.3	2.73 ± 0.18	–	–
